Measurements reported in the RNAGym collection of RNA variant scans (doi:10.1021/acssynbio.7b00057).

B1: Pistol ribozyme (parent)
chain: GGGUCGUUGUUCCAUAAUCGCGUGGAUAUGGCACGCAAGUUUCUACCGGGCACCGUAAAUGUCCGACUGGAGCCGUUCGGGCGGCUAUAAACAGACCUCAGGCCCGAAGCGUGGCGGCACCUGCCGCCGGUGGUAAAAAAGAUCGGAAGAGCACACGUCU

Variants of: B1
Assay: aptazyme ON/OFF ratio, guanine; higher = stronger switching; co-transcriptional cleavage with and without guanine

| Variant | aptazyme ON/OFF ratio |
| --- | --- |
| GGGUCGUAUUCUGAUAAUCGCGUGGAUAUGGCACGCAAGUUUCUACCGGGCACCGUAAAUGUCCGACUGGAGCCGUUCGGGCGGCUAUAAACAGACCUCAGGCCCGAAGCGUGGCGGCACCUGCCGCCGGUGGUAAAAAAGAUCGGAAGAGCACACGUCU [U8A G9U U11C C12U C13G] | 1.06 |
| GGGUCGACUUUGAAUAAUCGCGUGGAUAUGGCACGCAAGUUUCUACCGGGCACCGUAAAUGUCCGACUGGAGCCGUUCGGGCGGCUAUAAACAGACCUCAGGCCCGAAGCGUGGCGGCACCUGCCGCCGGUGGUAAAAAAGAUCGGAAGAGCACACGUCU [U7A U8C G9U C12G C13A] | 1.23 |
| GGGUCGCCCACCGAUAAUCGCGUGGAUAUGGCACGCAAGUUUCUACCGGGCACCGUAAAUGUCCGACUGGAGCCGUUCGGGCGGCUAUAAACAGACCUCAGGCCCGAAGCGUGGCGGCACCUGCCGCCGGUGGUAAAAAAGAUCGGAAGAGCACACGUCU [U7C U8C G9C U10A U11C C13G] | 1.1 |
| GGGUCGCUUGUCUAUAAUCGCGUGGAUAUGGCACGCAAGUUUCUACCGGGCACCGUAAAUGUCCGACUGGAGCCGUUCGGGCGGCUAUAAACAGACCUCAGGCCCGAAGCGUGGCGGCACCUGCCGCCGGUGGUAAAAAAGAUCGGAAGAGCACACGUCU [U7C G9U U10G C13U] | 1.37 |
| GGGUCGAAAACAUAUAAUCGCGUGGAUAUGGCACGCAAGUUUCUACCGGGCACCGUAAAUGUCCGACUGGAGCCGUUCGGGCGGCUAUAAACAGACCUCAGGCCCGAAGCGUGGCGGCACCUGCCGCCGGUGGUAAAAAAGAUCGGAAGAGCACACGUCU [U7A U8A G9A U10A U11C C12A C13U] | 1.24 |
| GGGUCGACCCAAGAUAAUCGCGUGGAUAUGGCACGCAAGUUUCUACCGGGCACCGUAAAUGUCCGACUGGAGCCGUUCGGGCGGCUAUAAACAGACCUCAGGCCCGAAGCGUGGCGGCACCUGCCGCCGGUGGUAAAAAAGAUCGGAAGAGCACACGUCU [U7A U8C G9C U10C U11A C12A C13G] | 1.06 |
| GGGUCGCCCGUCGAUAAUCGCGUGGAUAUGGCACGCAAGUUUCUACCGGGCACCGUAAAUGUCCGACUGGAGCCGUUCGGGCGGCUAUAAACAGACCUCAGGCCCGAAGCGUGGCGGCACCUGCCGCCGGUGGUAAAAAAGAUCGGAAGAGCACACGUCU [U7C U8C G9C U10G C13G] | 1.1 |
| GGGUCGUGUUUUUAUAAUCGCGUGGAUAUGGCACGCAAGUUUCUACCGGGCACCGUAAAUGUCCGACUGGAGCCGUUCGGGCGGCUAUAAACAGACCUCAGGCCCGAAGCGUGGCGGCACCUGCCGCCGGUGGUAAAAAAGAUCGGAAGAGCACACGUCU [U8G G9U C12U C13U] | 1.14 |
| GGGUCGUACAAGCAUAAUCGCGUGGAUAUGGCACGCAAGUUUCUACCGGGCACCGUAAAUGUCCGACUGGAGCCGUUCGGGCGGCUAUAAACAGACCUCAGGCCCGAAGCGUGGCGGCACCUGCCGCCGGUGGUAAAAAAGAUCGGAAGAGCACACGUCU [U8A G9C U10A U11A C12G] | 1.37 |
| GGGUCGAGAGUUCAUAAUCGCGUGGAUAUGGCACGCAAGUUUCUACCGGGCACCGUAAAUGUCCGACUGGAGCCGUUCGGGCGGCUAUAAACAGACCUCAGGCCCGAAGCGUGGCGGCACCUGCCGCCGGUGGUAAAAAAGAUCGGAAGAGCACACGUCU [U7A U8G G9A U10G C12U] | 1.21 |
| GGGUCGUGAAGCAAUAAUCGCGUGGAUAUGGCACGCAAGUUUCUACCGGGCACCGUAAAUGUCCGACUGGAGCCGUUCGGGCGGCUAUAAACAGACCUCAGGCCCGAAGCGUGGCGGCACCUGCCGCCGGUGGUAAAAAAGAUCGGAAGAGCACACGUCU [U8G G9A U10A U11G C13A] | 1.23 |
| GGGUCGCGAACGUAUAAUCGCGUGGAUAUGGCACGCAAGUUUCUACCGGGCACCGUAAAUGUCCGACUGGAGCCGUUCGGGCGGCUAUAAACAGACCUCAGGCCCGAAGCGUGGCGGCACCUGCCGCCGGUGGUAAAAAAGAUCGGAAGAGCACACGUCU [U7C U8G G9A U10A U11C C12G C13U] | 1.45 |
| GGGUCGCCGAGCUAUAAUCGCGUGGAUAUGGCACGCAAGUUUCUACCGGGCACCGUAAAUGUCCGACUGGAGCCGUUCGGGCGGCUAUAAACAGACCUCAGGCCCGAAGCGUGGCGGCACCUGCCGCCGGUGGUAAAAAAGAUCGGAAGAGCACACGUCU [U7C U8C U10A U11G C13U] | 1.18 |
| GGGUCGAGGAAGGAUAAUCGCGUGGAUAUGGCACGCAAGUUUCUACCGGGCACCGUAAAUGUCCGACUGGAGCCGUUCGGGCGGCUAUAAACAGACCUCAGGCCCGAAGCGUGGCGGCACCUGCCGCCGGUGGUAAAAAAGAUCGGAAGAGCACACGUCU [U7A U8G U10A U11A C12G C13G] | 1.26 |
| GGGUCGCCAUGUAAUAAUCGCGUGGAUAUGGCACGCAAGUUUCUACCGGGCACCGUAAAUGUCCGACUGGAGCCGUUCGGGCGGCUAUAAACAGACCUCAGGCCCGAAGCGUGGCGGCACCUGCCGCCGGUGGUAAAAAAGAUCGGAAGAGCACACGUCU [U7C U8C G9A U11G C12U C13A] | 1.22 |
| GGGUCGAUGGUGUAUAAUCGCGUGGAUAUGGCACGCAAGUUUCUACCGGGCACCGUAAAUGUCCGACUGGAGCCGUUCGGGCGGCUAUAAACAGACCUCAGGCCCGAAGCGUGGCGGCACCUGCCGCCGGUGGUAAAAAAGAUCGGAAGAGCACACGUCU [U7A U10G C12G C13U] | 1.2 |
| GGGUCGAACUCAAAUAAUCGCGUGGAUAUGGCACGCAAGUUUCUACCGGGCACCGUAAAUGUCCGACUGGAGCCGUUCGGGCGGCUAUAAACAGACCUCAGGCCCGAAGCGUGGCGGCACCUGCCGCCGGUGGUAAAAAAGAUCGGAAGAGCACACGUCU [U7A U8A G9C U11C C12A C13A] | 1.08 |
| GGGUCGAGCACGCAUAAUCGCGUGGAUAUGGCACGCAAGUUUCUACCGGGCACCGUAAAUGUCCGACUGGAGCCGUUCGGGCGGCUAUAAACAGACCUCAGGCCCGAAGCGUGGCGGCACCUGCCGCCGGUGGUAAAAAAGAUCGGAAGAGCACACGUCU [U7A U8G G9C U10A U11C C12G] | 1.22 |
